Experimental data: patent publication US20250368745A1 (published 2025)

T1: human IL-18BP (human, UniProt O95998 31-194)
T1 construct: UniProt printed as 095998; also called hIL-18BP
T1 sequence: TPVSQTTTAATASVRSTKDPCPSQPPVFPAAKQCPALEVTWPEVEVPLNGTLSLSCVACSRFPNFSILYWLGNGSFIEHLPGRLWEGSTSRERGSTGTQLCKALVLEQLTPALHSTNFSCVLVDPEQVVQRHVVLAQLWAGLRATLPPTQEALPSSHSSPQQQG

B1: SA301a LC-Y91M (antibody, name in Kabat numbering, V domains shown)
VH: QVQLQESGPGLVKPSQTLSLTCTVSGYSITSDYNSHWIRQPPGKGLEWIGYIHYSGSTNYNPSLKSRVTISRDTSKNQFSLKLSSVTAADTAVYYCARNYGSIYVNYFDYWGQGTLVTVSS
VL: EIVLTQSPATLSLSPGERATLSCSASSSVSYMYWYQQKPGQAPRPLIYRTSNLASGIPARFSGSGSGTDFTLTISSLEPEDFAVYYCQQMHSYPTFGGGTKVEIK
notes: IgG1 kappa
B2: SA301a LC-Q89F (antibody, V domains shown)
VH: QVQLQESGPGLVKPSQTLSLTCTVSGYSITSDYNSHWIRQPPGKGLEWIGYIHYSGSTNYNPSLKSRVTISRDTSKNQFSLKLSSVTAADTAVYYCARNYGSIYVNYFDYWGQGTLVTVSS
VL: EIVLTQSPATLSLSPGERATLSCSASSSVSYMYWYQQKPGQAPRPLIYRTSNLASGIPARFSGSGSGTDFTLTISSLEPEDFAVYYCFQYHSYPTFGGGTKVEIK
B3: SA301a LC-Q89S (antibody, V domains shown)
VH: QVQLQESGPGLVKPSQTLSLTCTVSGYSITSDYNSHWIRQPPGKGLEWIGYIHYSGSTNYNPSLKSRVTISRDTSKNQFSLKLSSVTAADTAVYYCARNYGSIYVNYFDYWGQGTLVTVSS
VL: EIVLTQSPATLSLSPGERATLSCSASSSVSYMYWYQQKPGQAPRPLIYRTSNLASGIPARFSGSGSGTDFTLTISSLEPEDFAVYYCSQYHSYPTFGGGTKVEIK
B4: SA301a LC-Q89G (antibody, V domains shown)
VH: QVQLQESGPGLVKPSQTLSLTCTVSGYSITSDYNSHWIRQPPGKGLEWIGYIHYSGSTNYNPSLKSRVTISRDTSKNQFSLKLSSVTAADTAVYYCARNYGSIYVNYFDYWGQGTLVTVSS
VL: EIVLTQSPATLSLSPGERATLSCSASSSVSYMYWYQQKPGQAPRPLIYRTSNLASGIPARFSGSGSGTDFTLTISSLEPEDFAVYYCGQYHSYPTFGGGTKVEIK
B5: SA301a LC-Q89M (antibody, V domains shown)
VH: QVQLQESGPGLVKPSQTLSLTCTVSGYSITSDYNSHWIRQPPGKGLEWIGYIHYSGSTNYNPSLKSRVTISRDTSKNQFSLKLSSVTAADTAVYYCARNYGSIYVNYFDYWGQGTLVTVSS
VL: EIVLTQSPATLSLSPGERATLSCSASSSVSYMYWYQQKPGQAPRPLIYRTSNLASGIPARFSGSGSGTDFTLTISSLEPEDFAVYYCMQYHSYPTFGGGTKVEIK
B6: SA301a LC-Q89K (antibody, V domains shown)
VH: QVQLQESGPGLVKPSQTLSLTCTVSGYSITSDYNSHWIRQPPGKGLEWIGYIHYSGSTNYNPSLKSRVTISRDTSKNQFSLKLSSVTAADTAVYYCARNYGSIYVNYFDYWGQGTLVTVSS
VL: EIVLTQSPATLSLSPGERATLSCSASSSVSYMYWYQQKPGQAPRPLIYRTSNLASGIPARFSGSGSGTDFTLTISSLEPEDFAVYYCKQYHSYPTFGGGTKVEIK
B7: SA301a LC-Q89Y (antibody, V domains shown)
VH: QVQLQESGPGLVKPSQTLSLTCTVSGYSITSDYNSHWIRQPPGKGLEWIGYIHYSGSTNYNPSLKSRVTISRDTSKNQFSLKLSSVTAADTAVYYCARNYGSIYVNYFDYWGQGTLVTVSS
VL: EIVLTQSPATLSLSPGERATLSCSASSSVSYMYWYQQKPGQAPRPLIYRTSNLASGIPARFSGSGSGTDFTLTISSLEPEDFAVYYCYQYHSYPTFGGGTKVEIK
B8: SA301a LC-Q89V (antibody, V domains shown)
VH: QVQLQESGPGLVKPSQTLSLTCTVSGYSITSDYNSHWIRQPPGKGLEWIGYIHYSGSTNYNPSLKSRVTISRDTSKNQFSLKLSSVTAADTAVYYCARNYGSIYVNYFDYWGQGTLVTVSS
VL: EIVLTQSPATLSLSPGERATLSCSASSSVSYMYWYQQKPGQAPRPLIYRTSNLASGIPARFSGSGSGTDFTLTISSLEPEDFAVYYCVQYHSYPTFGGGTKVEIK
B9: SA301a LC-Q89N (antibody, V domains shown)
VH: QVQLQESGPGLVKPSQTLSLTCTVSGYSITSDYNSHWIRQPPGKGLEWIGYIHYSGSTNYNPSLKSRVTISRDTSKNQFSLKLSSVTAADTAVYYCARNYGSIYVNYFDYWGQGTLVTVSS
VL: EIVLTQSPATLSLSPGERATLSCSASSSVSYMYWYQQKPGQAPRPLIYRTSNLASGIPARFSGSGSGTDFTLTISSLEPEDFAVYYCNQYHSYPTFGGGTKVEIK
B10: SA301a LC-Q89D (antibody, V domains shown)
VH: QVQLQESGPGLVKPSQTLSLTCTVSGYSITSDYNSHWIRQPPGKGLEWIGYIHYSGSTNYNPSLKSRVTISRDTSKNQFSLKLSSVTAADTAVYYCARNYGSIYVNYFDYWGQGTLVTVSS
VL: EIVLTQSPATLSLSPGERATLSCSASSSVSYMYWYQQKPGQAPRPLIYRTSNLASGIPARFSGSGSGTDFTLTISSLEPEDFAVYYCDQYHSYPTFGGGTKVEIK
B11: SA301a LC-Y91V (antibody, name in Kabat numbering, V domains shown)
VH: QVQLQESGPGLVKPSQTLSLTCTVSGYSITSDYNSHWIRQPPGKGLEWIGYIHYSGSTNYNPSLKSRVTISRDTSKNQFSLKLSSVTAADTAVYYCARNYGSIYVNYFDYWGQGTLVTVSS
VL: EIVLTQSPATLSLSPGERATLSCSASSSVSYMYWYQQKPGQAPRPLIYRTSNLASGIPARFSGSGSGTDFTLTISSLEPEDFAVYYCQQVHSYPTFGGGTKVEIK
notes: IgG1 kappa
B12: SA301a LC-Y91P (antibody, name in Kabat numbering, V domains shown)
VH: QVQLQESGPGLVKPSQTLSLTCTVSGYSITSDYNSHWIRQPPGKGLEWIGYIHYSGSTNYNPSLKSRVTISRDTSKNQFSLKLSSVTAADTAVYYCARNYGSIYVNYFDYWGQGTLVTVSS
VL: EIVLTQSPATLSLSPGERATLSCSASSSVSYMYWYQQKPGQAPRPLIYRTSNLASGIPARFSGSGSGTDFTLTISSLEPEDFAVYYCQQPHSYPTFGGGTKVEIK
notes: IgG1 kappa
B13: SA301a LC-Y91R (antibody, name in Kabat numbering, V domains shown)
VH: QVQLQESGPGLVKPSQTLSLTCTVSGYSITSDYNSHWIRQPPGKGLEWIGYIHYSGSTNYNPSLKSRVTISRDTSKNQFSLKLSSVTAADTAVYYCARNYGSIYVNYFDYWGQGTLVTVSS
VL: EIVLTQSPATLSLSPGERATLSCSASSSVSYMYWYQQKPGQAPRPLIYRTSNLASGIPARFSGSGSGTDFTLTISSLEPEDFAVYYCQQRHSYPTFGGGTKVEIK
notes: IgG1 kappa
B14: SA301a LC-Y91Q (antibody, name in Kabat numbering, V domains shown)
VH: QVQLQESGPGLVKPSQTLSLTCTVSGYSITSDYNSHWIRQPPGKGLEWIGYIHYSGSTNYNPSLKSRVTISRDTSKNQFSLKLSSVTAADTAVYYCARNYGSIYVNYFDYWGQGTLVTVSS
VL: EIVLTQSPATLSLSPGERATLSCSASSSVSYMYWYQQKPGQAPRPLIYRTSNLASGIPARFSGSGSGTDFTLTISSLEPEDFAVYYCQQQHSYPTFGGGTKVEIK
notes: IgG1 kappa
B15: SA301a LC-Y91T (antibody, name in Kabat numbering, V domains shown)
VH: QVQLQESGPGLVKPSQTLSLTCTVSGYSITSDYNSHWIRQPPGKGLEWIGYIHYSGSTNYNPSLKSRVTISRDTSKNQFSLKLSSVTAADTAVYYCARNYGSIYVNYFDYWGQGTLVTVSS
VL: EIVLTQSPATLSLSPGERATLSCSASSSVSYMYWYQQKPGQAPRPLIYRTSNLASGIPARFSGSGSGTDFTLTISSLEPEDFAVYYCQQTHSYPTFGGGTKVEIK
notes: IgG1 kappa
B16: SA301a LC-Y91S (antibody, name in Kabat numbering, V domains shown)
VH: QVQLQESGPGLVKPSQTLSLTCTVSGYSITSDYNSHWIRQPPGKGLEWIGYIHYSGSTNYNPSLKSRVTISRDTSKNQFSLKLSSVTAADTAVYYCARNYGSIYVNYFDYWGQGTLVTVSS
VL: EIVLTQSPATLSLSPGERATLSCSASSSVSYMYWYQQKPGQAPRPLIYRTSNLASGIPARFSGSGSGTDFTLTISSLEPEDFAVYYCQQSHSYPTFGGGTKVEIK
notes: IgG1 kappa

Target: T1, human IL-18BP
Experiment: BLI, apparent KD

In order of falling Kd:
1. B11  1.85 nM
2. B6  0.97 nM
3. B8  0.51 nM
4. B5  0.49 nM
5. B15  0.45 nM
6. B2  0.4 nM
7. B7  0.35 nM
8. B16  0.33 nM
9. B4  0.32 nM
10. B3  0.28 nM
11. B9  0.28 nM
12. B12  0.24 nM
13. B14  0.24 nM
14. B1  0.22 nM
15. B13  0.18 nM
16. B10  0.02 nM
